In the supplement of paper PMC7877785:
± gives the uncertainty stated by the source.

Experiment: self-splicing fitness, log relative to wild type (ln ratio); higher = more splicing; Tetrahymena group I intron in knt gene, E. coli kanamycin selection, DiMSum; sequences stand for … in CUCUCU…GGAGGGAAAAGUUAUCAGGCAUGCACCUGGUAGCUAGUCUUUAAACCAAUAGAUUGCAUCGGUUUAAAAGGCAAGACCGUCAAAUUGCGGGAAAGGGGUCAACAGCCGUUCAGUACCAAGUCUCAGGGGAAACUUUGAGAUGGCCUUGCAAAGGGUAUGGUAAUAAGCUGACGGACAUGGUCCUAACCACGCAGCCAAGUCCUAAGUCAACAGAUCUUCUGUUGAUAUGGAUGCAGUUCACAGACUAAAUGUCGGUCGGGGAAGAUGUAUUCUUCUCAUAAGAUAUAGUCGGACCUCUCCUUAAUGGGAGCUAGCGGAUGAAGUGAUGCAACACUGGAGCCGCUGGGAACUAAUUUGUAUGCGAAAGUAUAUUGAUUAGUUUUGGAGUACUCGUGGUCG
Outline: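 Library with all eight P1ex-region intron nucleotides randomised, intron inside the knt kanamycin-resistance gene on pET-22b(+), in E. coli BL21(DE3). Cells grew overnight at 37°C or 30°C on LB agar with or without 25 μg/mL kanamycin (plus 100 μg/mL carbenicillin, 50 μM IPTG, 0.2% rhamnose), in six replicate transformations. Pooled colonies were amplicon-sequenced on Illumina HiSeq 2500. DiMSum fitness is the error-weighted combination of wild-type-normalised replicate fold changes, kanamycin versus none.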

| Sequence | self-splicing fitness (ln) (30 °C) | self-splicing fitness (ln) (37 °C) |
| --- | --- | --- |
| UUAGAGCAAUAUUACGCCAA | -0.503 ± 0.16 | -0.0692 ± 0.2 |
| AGAGAGCAAUAUUACGCCAA | -2.71 ± 0.2 | -3.06 ± 0.43 |
| CAGGAGCAAUAUUACGCAGC | -2.14 ± 0.18 | -2.55 ± 0.33 |
| GUUCAGCAAUAUUACGGCUG | -3.59 ± 0.23 | -2.38 ± 0.26 |
| GGAAAGCAAUAUUACGCGAC | -2.95 ± 0.24 | -1.73 ± 0.25 |
| GGUUAGCAAUAUUACGGAGU | -1.27 ± 0.18 | -0.724 ± 0.2 |
| CUACAGCAAUAUUACGAAAC | -3.35 ± 0.26 | -2.37 ± 0.39 |
| AUACAGCAAUAUUACGAAAC | – | -3.1 ± 0.24 |
| AAGCAGCAAUAUUACGCUAC | -2.96 ± 0.24 | -2.31 ± 0.24 |
| UAAGAGCAAUAUUACGGGCC | -2.08 ± 0.32 | -0.897 ± 0.3 |
| GAAUAGCAAUAUUACGGAAU | -2.69 ± 0.17 | -1.66 ± 0.2 |
| UCACAGCAAUAUUACGAGAC | -4.56 ± 0.46 | -2.61 ± 0.2 |
| CCAUAGCAAUAUUACGCAAA | -1.93 ± 0.21 | -2.15 ± 0.3 |
| AGACAGCAAUAUUACGCUCG | -0.153 ± 0.076 | 0.136 ± 0.089 |
| AUCUAGCAAUAUUACGGUUC | -2.94 ± 0.32 | -2.34 ± 0.32 |
| GACAAGCAAUAUUACGGUAG | -1.84 ± 0.098 | -0.222 ± 0.092 |
| AACAAGCAAUAUUACGUAUU | -1.77 ± 0.079 | -0.983 ± 0.092 |
| GCCGAGCAAUAUUACGAAAU | -3.1 ± 0.39 | -1.62 ± 0.41 |
| AAACAGCAAUAUUACGGCAG | -2.08 ± 0.099 | -0.063 ± 0.1 |
| CGCUAGCAAUAUUACGUAAG | -0.553 ± 0.073 | -0.0723 ± 0.1 |
| ACUUAGCAAUAUUACGGUUU | -1.23 ± 0.11 | -0.718 ± 0.16 |
| UGAAAGCAAUAUUACGAAGG | -2.92 ± 0.21 | -1.48 ± 0.25 |
| CUCCAGCAAUAUUACGUUUU | -3.38 ± 0.12 | -3.12 ± 0.15 |
| CAUGAGCAAUAUUACGAACU | -3.53 ± 0.19 | -2.95 ± 0.26 |

| Sequence | self-splicing fitness (ln) (30 °C) | self-splicing fitness (ln) (37 °C) |
| --- | --- | --- |
| UUUUAGCAAUAUUACGUAAA | -1.52 ± 0.17 | -0.431 ± 0.23 |
| AGUAAGCAAUAUUACGGGUA | -2.7 ± 0.15 | -1.56 ± 0.13 |
| UAUGAGCAAUAUUACGACCG | -1.61 ± 0.4 | -1.53 ± 0.34 |
| AGGUAGCAAUAUUACGGUGG | -3.787 ± 0.027 | -2.8 ± 0.04 |
| CGAUAGCAAUAUUACGCCUA | -2.11 ± 0.22 | -1.38 ± 0.18 |
| UUGGAGCAAUAUUACGGCAU | – | -1.76 ± 0.24 |
| UUAAAGCAAUAUUACGAGUU | -2.82 ± 0.18 | -1.38 ± 0.16 |
| GGUCAGCAAUAUUACGACAG | -0.391 ± 0.11 | 0.151 ± 0.13 |
| AGGUAGCAAUAUUACGGUAA | -2.123 ± 0.021 | -1.2 ± 0.034 |
| GACAAGCAAUAUUACGUCCG | -1.98 ± 0.27 | -2.47 ± 0.28 |
| AACUAGCAAUAUUACGAAUA | -2.71 ± 0.2 | -1.6 ± 0.13 |
| CUGCAGCAAUAUUACGUCGG | -3.32 ± 0.18 | -1.98 ± 0.2 |
| AAGCAGCAAUAUUACGUAAG | -1.49 ± 0.074 | -1.02 ± 0.088 |
| CAUCAGCAAUAUUACGACUU | -1.85 ± 0.081 | -0.408 ± 0.081 |
| GAAUAGCAAUAUUACGUCAG | -3.69 ± 0.31 | -3.11 ± 0.4 |
| ACGCAGCAAUAUUACGGCCC | -0.00164 ± 0.16 | 0.0347 ± 0.18 |
| UGUCAGCAAUAUUACGACAA | -1.02 ± 0.097 | -0.118 ± 0.1 |
| GACAAGCAAUAUUACGGACC | -1.32 ± 0.1 | -0.785 ± 0.11 |
| CCCGAGCAAUAUUACGUCCC | -2.8 ± 0.24 | -2.3 ± 0.49 |
| CGACAGCAAUAUUACGCACC | -0.97 ± 0.21 | -1.79 ± 0.21 |
| GGUGAGCAAUAUUACGUGAC | -3.14 ± 0.22 | -0.938 ± 0.22 |
| CAGCAGCAAUAUUACGUUAA | -3.01 ± 0.11 | -1.66 ± 0.1 |
| GUGAAGCAAUAUUACGCUUU | -4.83 ± 0.36 | -2.84 ± 0.43 |
